{"source": "patent US20220332836A1", "about": "“A METHOD FOR PREVENTING HUMAN VIRUS ASSOCIATED DISORDERS IN PATIENTS” (NOVARTIS AG, priority 2019, published 2022)", "key": {"[1]": {"tested_on": "antibody-dependent cellular cytotoxicity or complement-dependent cytotoxicity", "test": "ADCC / CDC mediation", "type": "cell-based", "experimental": "Currently, CFZ533/Iscalimab is in clinical development for inhibition of transplant organ rejection and therapy for autoimmune diseases.\n(§1) mAb1 binds to human CD40 with high affinity (Kd of 0.3 nM)."}, "[2]": {"tested_on": "PBMC", "test": "Induction of PBMC proliferation", "type": "cell-based", "experimental": "as §1"}, "[3]": {"tested_on": "T cell-dependent antibody responses (TDAR)", "test": "In vivo T cell-dependent antibody responses and germinal centers"}, "[4]": {"test": "26-week chronic toxicity study in cynomolgus monkeys", "type": "in vivo", "settings": "for mean Cmax,ss: sc", "experimental": "(§2) Inflammatory lesions in the kidneys and lungs of 2 animals at 50 mg/kg were noted, and in one of the two animals, lesions in the eyes and trachea were also noted. […] In view of these inflammatory findings, the No Observed Adverse Effect Level (NOAEL) for the 13-week toxicity study was set at 10 mg/kg. […] The NOAEL derived from the 26-week cynomolgus monkey study is considered the most relevant for supporting the clinical dosing regimen.\nAdequate safety margin from preclinical toxicological studies: GLP toxicology studies to date have tested CFZ533 at (i) weekly s.c. dosing for 13 weeks at 10, 50, and 150 mg/kg (s.c. and i.v.) in rhesus monkeys, and (ii) weekly s.c. dosing for 26 weeks at 1, 50, and 150 mg/kg in cynomolgus monkeys.\nIn the 26-week toxicity study in cynomolgus monkey, at steady state, an average concentration of 8300 μg/mL (Cav,ss) was obtained after weekly dosing at 150 mg/kg (NOAEL).\nThe 10 mg/kg i.v. regimen was expected to provide, throughout the entire treatment period (placebo-controlled and open-label, see FIG. 3), sustained plasma concentrations above 40 μg/mL, to anticipate for higher CD40 expression in tx patients, and incomplete PD effects in target tissue due to loss of target saturation."}, "[5]": {"molecular_target": "T1, CD40 (Macaca mulatta, UniProt A0ACM8QRX8)", "T1 construct": "CD40 occupancy by mAb1 at plasma concentrations >40 μg/mL; endogenous in cells; host or cells: rhesus monkeys (in vivo)", "T1 sequence (A0ACM8QRX8 21-278)": "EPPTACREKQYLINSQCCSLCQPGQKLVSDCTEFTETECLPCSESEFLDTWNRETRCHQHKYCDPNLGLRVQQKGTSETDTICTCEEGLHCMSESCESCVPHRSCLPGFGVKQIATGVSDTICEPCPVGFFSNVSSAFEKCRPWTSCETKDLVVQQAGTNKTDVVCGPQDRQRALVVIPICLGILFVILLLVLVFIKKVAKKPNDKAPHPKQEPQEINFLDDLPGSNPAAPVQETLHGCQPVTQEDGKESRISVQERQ", "test": "KLH / tetanus toxoid immunization in rhesus monkeys", "type": "in vivo", "experimental": "In a PK/PD study in cynomolgus monkeys, the inflection point (about 10 μg/mL) in the PK profiles was associated with a drop of CD40 saturation, as determined in an independent lymphocyte target saturation assay. As such this inflection point is viewed as a marker for the level of saturation of CD40, and an evidence for target engagement. […] Monkeys were immunized with KLH three times (the first was about 3 weeks prior to dosing, the second was 2 weeks after mAb1 administration, and the third was after complete wash-out of mAb1). […]"}, "[6]": {"molecular_target": "T2, CD40 (Homo sapiens, UniProt P25942)", "T2 construct": "CD40 occupancy on peripheral B cells measuring free CD40 and total CD40; endogenous in cells; host or cells: peripheral / whole blood B cells of healthy subjects and rheumatoid arthritis patients (in vivo)", "T2 sequence (P25942 21-277)": "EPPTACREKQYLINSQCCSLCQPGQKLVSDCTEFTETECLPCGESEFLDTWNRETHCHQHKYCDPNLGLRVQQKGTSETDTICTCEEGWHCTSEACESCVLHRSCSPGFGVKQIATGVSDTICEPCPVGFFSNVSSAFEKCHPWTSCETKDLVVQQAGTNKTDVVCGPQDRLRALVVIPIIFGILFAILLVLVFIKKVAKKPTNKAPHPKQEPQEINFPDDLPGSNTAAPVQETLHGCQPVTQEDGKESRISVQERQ", "test": "Phase 1 single-ascending dose study in healthy subjects and rheumatoid arthritis patients", "type": "in vivo", "settings": "for safety and tolerability: interim", "experimental": "The safety, tolerability, PK and PD activity of mAb1 are being assessed in an ongoing, randomized, double-blind, placebo-controlled, single-ascending dose study of mAb1 in healthy subjects and patients with rheumatoid arthritis (RA). A total of 48 subjects have been enrolled: 36 healthy subjects who received single doses of mAb1 up to 3 mg/kg IV or S.C., and 12 patients with RA, 6 of whom received single doses of mAb1 at 10 mg/kg IV. […] An investigation of the 30 mg/kg IV dose is ongoing in RA patients. As this study is still ongoing, all clinical data are preliminary in nature and based on interim analyses conducted up to a dose of 10 mg/kg in RA patients.\nIn healthy subjects as well as in patients with rheumatoid arthritis, after single IV or SC administration, CFZ533 PK profiles were consistent with target mediated disposition resulting in non-linear PK profiles and more rapid clearance when CD40 receptor occupancy dropped below approximately 90%. […]"}, "[7]": {"tested_on": "EBV-seronegative EBV-B cell/T cell co-cultures", "test": "EBV-B cell/T cell co-culture, EBV-seronegative donors", "type": "cell-based, human"}, "[8]": {"settings": "in vivo", "experimental": "as §2"}, "[9]": {"tested_on": "EBV-seropositive EBV-B cell/T cell co-cultures", "test": "EBV-B cell/T cell co-culture, EBV-seropositive donors"}, "[10]": {"settings": "cynomolgus monkey, in vivo, 150 mg/kg"}, "[11]": {"settings": "single dose of 3 mg/kg (IV and SC)"}, "[12]": {"settings": "10 μg/mL (priming only; priming and recall) and 50 μg/mL (recall only)"}, "[13]": {"settings": "10-200 μg/mL, priming, recall, priming and recall, 11 days"}}, "data": [{"substance": "CFZ533: fully human monoclonal Fc-silent, non-depleting anti-CD40 antibody (IgG1/K); heavy chain SEQ ID NO: 9, light chain SEQ ID NO: 10", "values": [{"measurement": "mediation of ADCC or CDC", "setting": "[1]; listed as CFZ533/Iscalimab", "result": "incapable of mediating"}, {"measurement": "mediation of ADCC or CDC", "setting": "[1]; listed as mAb1", "result": "does not"}, {"measurement": "induction of PBMC proliferation", "setting": "[2]", "result": "does not induce"}, {"measurement": "established germinal centers (GCs)", "setting": "[3]", "result": "can disrupt"}, {"measurement": "primary and secondary T cell-dependent antibody responses (TDAR)", "setting": "[3]", "result": "blocks"}, {"measurement": "average steady state plasma concentration with complete suppression of germinal centers in cortical B cell areas of lymph nodes", "setting": "[4]; 1 mg/kg dose group", "result": "> 38", "unit": "µg/mL"}, {"measurement": "NOAEL", "setting": "[4]; 26-week, cynomolgus", "result": 150, "unit": "mg/kg"}, {"measurement": "adverse findings", "setting": "[4]; cynomolgus monkey, in vivo", "result": "no adverse, mAb1-related findings"}, {"measurement": "average concentration at steady state (Cav,ss)", "setting": "[4]; [10]", "result": 8300, "unit": "µg/mL"}, {"measurement": "systemic exposure (AUC, steady state) over a 1-month period", "setting": "[4]; [10]", "result": 232400, "unit": "µg·days/mL"}, {"measurement": "mean Cmax,ss", "setting": "[4]; cynomolgus monkey, in vivo, 1 mg/kg", "result": 44, "unit": "µg/mL"}, {"measurement": "mean Cmax,ss", "setting": "[4]; cynomolgus monkey, in vivo, 50 mg/kg", "result": 3235, "unit": "µg/mL"}, {"measurement": "GCs in cortical B-cell areas of the spleen and lymphatic tissues", "setting": "[4]; post-mortem histological and immuno-histological evaluation", "result": "decrease"}, {"measurement": "Cmax margin: cynomolgus Cmax,ss at NOAEL versus expected human Cmax", "setting": "[4]; proposed intravenous regimen", "result": 24, "unit": "fold"}, {"measurement": "plasma concentration at which CD40 occupancy completely prevented recall antibody responses", "setting": "[5]; at the time of the second KLH vaccination", "result": "> 40", "unit": "µg/mL"}, {"measurement": "response to the third KLH", "setting": "[5]; once mAb1 was cleared", "result": "full memory antibody response"}, {"measurement": "disposition in Chinese subjects versus non-Chinese subjects", "setting": "[6]; 3 mg/kg IV", "result": "generally similar"}, {"measurement": "duration of target engagement", "setting": "[6]; 3 mg/kg IV", "result": "about 4 weeks"}, {"measurement": "duration of target engagement", "setting": "[6]; 3 mg/kg SC", "result": "about 4 weeks"}, {"measurement": "time of peak plasma concentration post-dose", "setting": "[6]; 3 mg/kg SC, healthy subjects", "result": 3, "unit": "days"}, {"measurement": "duration of full CD40 occupancy", "setting": "[6]; 10 mg/kg IV, rheumatoid arthritis patients", "result": 8, "unit": "weeks"}, {"measurement": "duration of target engagement", "setting": "[6]; 30 mg/kg IV, rheumatoid arthritis patients", "result": 16, "unit": "weeks"}, {"measurement": "decrease in total CD40 on peripheral B cells", "setting": "[6]; healthy subjects", "result": "about 50%"}, {"measurement": "rCD154-induced CD69 expression on B cells", "setting": "[6]; human whole blood, during full CD40 occupancy", "result": "generally suppressed"}, {"measurement": "extent of exposure (AUClast) versus dose", "setting": "[6]; human, in vivo", "result": "increased more than the increase in dose"}, {"measurement": "plasma concentration associated with full (>90%) CD40 occupancy on whole blood B cells", "setting": "[6]; human, in vivo", "result": "0.3 to 0.4", "unit": "µg/mL"}, {"measurement": "decrease in total CD40 on peripheral B cells", "setting": "[6]; patients with rheumatoid arthritis", "result": "not confirmed"}, {"measurement": "safety and tolerability", "setting": "[6]; single 10 mg/kg, RA patients", "result": "safe and well tolerated"}, {"measurement": "CD40 receptor occupancy below which clearance is more rapid", "setting": "[6]; single IV or SC administration", "result": "approximately 90%"}, {"measurement": "safety in Phase 1 study CCFZ533×2101", "setting": "[6]; single ascending doses 0.03 to 30 mg/kg i.v. and 3 mg/kg s.c.", "result": "did not reveal major safety concern"}, {"measurement": "anti-KLH responses to the first KLH immunization", "setting": "[6]; [11]", "result": "transiently suppressed"}, {"measurement": "duration of full (>90%) receptor occupancy with anti-KLH suppression", "setting": "[6]; [11]", "result": "3-4 weeks"}, {"measurement": "safety and tolerability", "setting": "[6]; single doses up to 3 mg/kg, healthy volunteers", "result": "safe and well tolerated"}, {"measurement": "CD4+ T cell proliferation", "setting": "[7]; [12]", "result": "slight not significant increase"}, {"measurement": "CD8+ T cell proliferation", "setting": "[7]; [12]", "result": "slight not significant increase"}, {"measurement": "CD4+ T cell proliferation", "setting": "[7]; 10-200 μg/mL, all three conditions", "result": "no effects"}, {"measurement": "CD3+ T cell proliferation", "setting": "[7]; [13]", "result": "no reducing effect"}, {"measurement": "CD8+ T cell proliferation", "setting": "[7]; all tested concentrations", "result": "no major effects"}, {"measurement": "organ toxicities", "setting": "[8]", "result": "did not reveal any significant organ toxicities"}, {"measurement": "thromboembolic events", "setting": "[8]", "result": "no evidence of thromboembolic events"}, {"measurement": "CD3+ T cell proliferation", "setting": "[9]; [13]", "result": "no reducing effect"}, {"measurement": "CD4+ T cell proliferation", "setting": "[9]; [13]", "result": "no decreasing effect"}, {"measurement": "CD4+ T cell proliferation", "setting": "[9]; priming only phase", "result": "slight decline"}]}]}
